Source: publication PMC7689938, “Abscisic acid promotes jasmonic acid biosynthesis via a ‘SAPK10‐bZIP72‐AOC’ pathway to synergistically inhibit seed germination in rice (Oryza sativa)” (The New Phytologist, 2020)

T1: GST-SAPK10 (rice (Oryza sativa L. ssp. japonica cv …, UniProt Q75H77 1-362))
T1 construct: SAPK10 (SnRK2 type kinase), rice; full-length CDS in pGEX-4T-1; Purified GST-SAPK10 gave a phosphorylation band with Phos-tag (autophosphorylation, not detected in S177A); source: Transetta (DE3) cells, purified (GST-Sefinose Kit)
T1 sequence (looked up): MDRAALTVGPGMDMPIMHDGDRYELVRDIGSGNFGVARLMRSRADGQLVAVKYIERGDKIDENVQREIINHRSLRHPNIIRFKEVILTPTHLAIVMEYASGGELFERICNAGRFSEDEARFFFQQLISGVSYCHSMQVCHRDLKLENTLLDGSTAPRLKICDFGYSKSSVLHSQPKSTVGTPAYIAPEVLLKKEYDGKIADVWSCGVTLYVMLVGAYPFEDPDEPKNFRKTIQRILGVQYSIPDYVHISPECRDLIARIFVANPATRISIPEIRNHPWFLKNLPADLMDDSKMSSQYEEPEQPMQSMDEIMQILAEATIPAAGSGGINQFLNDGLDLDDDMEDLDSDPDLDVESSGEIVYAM


Biological target: T1, GST-SAPK10
Assay: pull-down; GST fusion on glutathione high-capacity magnetic agarose beads; 50 mM Tris-HCl pH 7.5, 5% glycerol, 1 mM EDTA, 1 mM DTT, 1 mM PMSF, 0.01% Nonidet P-40, 150 mM KCl; 4°C, 2 h; blots with anti-His and anti-GST
Settings: both partners purified

binding result	Binder
binds	His-SAPK10 (enzyme, UniProt Q75H77 1-362, looked up, SAPK10 (SnRK2 type kinase), rice; full-length CDS in pET28a; source: Transetta (DE3) cells, purified (6 x His-Tagged Protein Purification Kit)) MDRAALTVGPGMDMPIMHDGDRYELVRDIGSGNFGVARLMRSRADGQLVAVKYIERGDKIDENVQREIINHRSLRHPNIIRFKEVILTPTHLAIVMEYASGGELFERICNAGRFSEDEARFFFQQLISGVSYCHSMQVCHRDLKLENTLLDGSTAPRLKICDFGYSKSSVLHSQPKSTVGTPAYIAPEVLLKKEYDGKIADVWSCGVTLYVMLVGAYPFEDPDEPKNFRKTIQRILGVQYSIPDYVHISPECRDLIARIFVANPATRISIPEIRNHPWFLKNLPADLMDDSKMSSQYEEPEQPMQSMDEIMQILAEATIPAAGSGGINQFLNDGLDLDDDMEDLDSDPDLDVESSGEIVYAM
binds	His-SAPK10^S177A (enzyme, UniProt Q75H77 1-362, looked up, SAPK10, rice, Ser177 replaced by alanine; full-length CDS in pET28a; source: Transetta (DE3) cells, purified (6 x His-Tagged Protein Purification Kit)) MDRAALTVGPGMDMPIMHDGDRYELVRDIGSGNFGVARLMRSRADGQLVAVKYIERGDKIDENVQREIINHRSLRHPNIIRFKEVILTPTHLAIVMEYASGGELFERICNAGRFSEDEARFFFQQLISGVSYCHSMQVCHRDLKLENTLLDGSTAPRLKICDFGYSKSSVLHSQPKATVGTPAYIAPEVLLKKEYDGKIADVWSCGVTLYVMLVGAYPFEDPDEPKNFRKTIQRILGVQYSIPDYVHISPECRDLIARIFVANPATRISIPEIRNHPWFLKNLPADLMDDSKMSSQYEEPEQPMQSMDEIMQILAEATIPAAGSGGINQFLNDGLDLDDDMEDLDSDPDLDVESSGEIVYAM
